Square brackets hold non-standard residues; d marks the D form. * marks the point of attachment. hArg = N=C(N)NCCCC[C@H](N)C(=O)O; Pentanoyl = CCCCC(=O)*
Target: PCSK9Δhelix (human) (UniProt Q8NBP7)
Assay: TR-FRET competition, Ab20 as competitor

PCSK9Δhelix (human), sequence (Q8NBP7 31-152 limits assumed, stated change not applied, chain 1 of 2): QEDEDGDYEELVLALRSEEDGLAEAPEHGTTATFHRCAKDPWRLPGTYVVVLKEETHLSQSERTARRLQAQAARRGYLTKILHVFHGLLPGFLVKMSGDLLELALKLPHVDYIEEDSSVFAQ
PCSK9Δhelix (human), sequence (Q8NBP7 other isoform, or with tags, fused parts or gaps mutant limits assumed, chain 2 of 2): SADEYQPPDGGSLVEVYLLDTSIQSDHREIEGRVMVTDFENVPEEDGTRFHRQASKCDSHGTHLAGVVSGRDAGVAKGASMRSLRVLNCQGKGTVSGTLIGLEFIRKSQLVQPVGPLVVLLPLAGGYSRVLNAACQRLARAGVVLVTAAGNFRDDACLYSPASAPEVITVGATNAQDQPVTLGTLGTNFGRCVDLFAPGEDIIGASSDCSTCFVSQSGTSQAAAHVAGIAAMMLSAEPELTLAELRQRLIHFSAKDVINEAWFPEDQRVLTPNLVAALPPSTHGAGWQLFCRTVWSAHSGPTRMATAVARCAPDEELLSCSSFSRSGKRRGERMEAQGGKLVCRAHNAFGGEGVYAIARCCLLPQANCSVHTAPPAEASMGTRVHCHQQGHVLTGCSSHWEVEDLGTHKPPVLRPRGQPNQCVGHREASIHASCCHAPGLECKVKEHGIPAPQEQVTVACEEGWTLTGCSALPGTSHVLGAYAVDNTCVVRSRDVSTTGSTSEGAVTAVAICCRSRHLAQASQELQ

fold increase of inhibition against the arginine peptide (Compound 112) [fold] | IC50 [µM] | Binder
5 |  | Pentanoyl-WNLV[hArg]IGLTR-NH2 (SMILES CCCCC(=O)N[C@@H](Cc1c[nH]c2ccccc12)C(=O)N[C@@H](CC(N)=O)C(=O)N[C@@H](CC(C)C)C(=O)N[C@H](C(=O)N[C@@H](CCCCNC(=N)N)C(=O)N[C@H](C(=O)NCC(=O)N[C@@H](CC(C)C)C(=O)N[C@H](C(=O)N[C@@H](CCCNC(=N)N)C(N)=O)[C@@H](C)O)[C@@H](C)CC)C(C)C) [Compound 118]
 | < 10 | Pentanoyl-WNLVRIGLLR-NH2 (SMILES CCCCC(=O)N[C@@H](Cc1c[nH]c2ccccc12)C(=O)N[C@@H](CC(N)=O)C(=O)N[C@@H](CC(C)C)C(=O)N[C@H](C(=O)N[C@@H](CCCNC(=N)N)C(=O)N[C@H](C(=O)NCC(=O)N[C@@H](CC(C)C)C(=O)N[C@@H](CC(C)C)C(=O)N[C@@H](CCCNC(=N)N)C(N)=O)[C@@H](C)CC)C(C)C) [Compound 111]
